Reduction of coprecipitated Exo70 against wild type data for one substance are collected here from paper PMC2814788.

The target in this experiment is C-terminally myc-tagged Sec8 (Sec8-myc) (S. cerevisiae) (UniProt P32855). The experiment in a line: co-IP.
Chain of UniProt P32855 (P32855 whole entry): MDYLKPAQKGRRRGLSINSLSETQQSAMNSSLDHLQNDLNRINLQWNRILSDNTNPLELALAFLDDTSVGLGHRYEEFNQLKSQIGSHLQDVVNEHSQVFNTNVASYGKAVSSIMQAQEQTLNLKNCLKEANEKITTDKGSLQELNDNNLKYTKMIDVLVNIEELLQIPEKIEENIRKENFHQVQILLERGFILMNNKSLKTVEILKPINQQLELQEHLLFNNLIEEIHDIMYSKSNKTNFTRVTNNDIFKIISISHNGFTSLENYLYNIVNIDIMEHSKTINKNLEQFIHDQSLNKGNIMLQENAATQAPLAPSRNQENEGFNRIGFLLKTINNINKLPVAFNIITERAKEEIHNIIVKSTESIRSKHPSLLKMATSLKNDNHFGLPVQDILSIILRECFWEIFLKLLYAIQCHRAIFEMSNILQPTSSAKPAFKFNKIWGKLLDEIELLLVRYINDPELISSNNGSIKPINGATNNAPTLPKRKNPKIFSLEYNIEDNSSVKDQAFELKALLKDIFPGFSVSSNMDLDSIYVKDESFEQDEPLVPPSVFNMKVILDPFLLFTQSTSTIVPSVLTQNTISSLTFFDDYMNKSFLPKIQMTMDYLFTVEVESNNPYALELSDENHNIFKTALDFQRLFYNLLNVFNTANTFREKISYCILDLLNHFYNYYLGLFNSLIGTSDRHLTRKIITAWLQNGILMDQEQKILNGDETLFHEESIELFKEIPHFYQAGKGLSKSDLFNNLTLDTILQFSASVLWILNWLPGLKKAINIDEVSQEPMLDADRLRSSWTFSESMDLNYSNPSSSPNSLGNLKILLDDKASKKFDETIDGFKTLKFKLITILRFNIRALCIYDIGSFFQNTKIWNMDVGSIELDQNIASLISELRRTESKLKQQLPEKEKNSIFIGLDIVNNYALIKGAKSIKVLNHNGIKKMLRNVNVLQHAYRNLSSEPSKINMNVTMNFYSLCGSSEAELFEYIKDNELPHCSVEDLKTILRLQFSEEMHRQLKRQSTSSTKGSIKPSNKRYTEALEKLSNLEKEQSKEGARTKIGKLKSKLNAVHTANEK

Turning to “Exo70-E557K (gain-of-function mutant, in yeast lysate) (from UniProt P19658 63-623) (natural protein)”, the reduction of coprecipitated Exo70 against wild type is 25%.
